{"source": "patent US10344330B2", "about": "“Glatiramer acetate response biomarker mRNA potency assay” (Mylan Inc., priority 2013, dated 2019)", "molecules": {"B1": {"name": "MBP: myelin basic protein, a negative control (protein, UniProt P02686 1-304, looked up)", "Myelin basic protein": "MGNHAGKRELNAEKASTNSETNRGESEKKRNLGELSRTTSEDNEVFGEADANQNNGTSSQDTAVTDSKRTADPKNAWQDAHPADPGSRPHLIRLFSRDAPGREDNTFKDRPSESDELQTIQEDSAATSESLDVMASQKRPSQRHGSKYLATASTMDHARHGFLPRHRDTGILDSIGRFFGGDRGAPKRGSGKDSHHPARTAHYGSLPQKSHGRTQDENPVVHFFKNIVTPRTPPPSQGKGRGLSLSRFSWGAEGQRPGFGYGGRASDYKSAHKGFKGVDAQGTLSKIFKLGGRDSRSGSPMARR"}}, "key": {"[1]": {"system": "mIL-4 mRNA in primary LN cells", "experiment": "mIL-4 mRNA by real-time PCR in stimulated LN cells of immunized (SJL/J×BALB/C)F1 mice (Example I)", "format": "cell-based, mouse", "conditions": "GA 10, MBP 10, ConA 2.5 μg/mL; for mIL-4 mRNA Level: Experiment 1, GA-immunized (SJL/J×BALB/C)F1; for mIL-4 mRNA: reference 18S rRNA", "description": "For each of the three experiments summarized in Table 1, female (SJL/J×BALB/C) F1 hybrid (Jackson Laboratory) mice were immunized by footpad injection with either 250 μg GMA (Mylan Pharmaceuticals, Inc.) and CFA (Sigma Aldrich), or Mannitol and CFA (as a negative control). The GA solution was diluted to 5 mg/mL with Dulbecco's Phosphate-buffered saline. A dose solution was then prepared by mixing the diluted GA solution (5 mg/mL) and CFA (1:1) until well-emulsified. Each mouse received a total injection volume of 0.1 mL (250 μg GA). Animals were immunized on Day 0. Immunized animals were sacrificed via cervical dislocation on Day 10 following immunization. […] The LN were washed 3 times with −5 mL of RPMI medium, and the LN cells isolated by pressing the LN with a syringe plunger. […] The cell suspension was centrifuged at about 200×g for 10 minutes at about 4° C. and re-suspended in ice cold enriched DCCM-1 medium. The LN cells (2.5×10^6 cells/cm^2) were plated in the wells of a 48-well tissue culture plate and stimulated with GA or controls.\nExpression of cytokine mRNA was quantitatively analyzed using a Real-Time PCR system (7500, Applied Biosystems).\n(DCCM1 from Beit Haemek Ltd.; Cat. No. 05 010 1A). There was no MBP treatment for the 2-hour groups.\nGroup 1B animals were female (SJL/J×BALB/C) F1 hybrid (Jackson Laboratory) mice immunized by footpad injection with either 250 μg GA and CFA, or Mannitol and CFA (as a negative control). A dose solution was prepared by mixing a diluted GA solution (5 mg/mL) and CFA (1:1). Each mouse received a total injection volume of […] (250 μg GA). Animals were immunized on Day 0. Immunized animals were sacrificed via cervical dislocation on Day 10 following immunization. Lymph nodes from immunized mice were removed and isolated. LN cells (2.5×10^6 cells/cm^2) were plated in the wells of a 48-well tissue culture plate for stimulation with GA.\n(§1) Expression of cytokine mRNA was quantitatively analyzed 4 and 6 hours after using a Real-Time PCR system (7500, Applied Biosystems)."}, "[2]": {"system": "IL-2 secreted by LN cells", "experiment": "IL-2 secretion by GA-stimulated LN cells, MSD 9-plex ELISA (Example II)", "format": "cell-based, mouse", "conditions": "21 hr"}, "[3]": {"system": "IFN-γ secreted by LN cells", "experiment": "IFN-γ secretion by GA-stimulated LN cells, MSD ELISA, 21 and 45 hr (Example II)", "format": "cell-based, mouse"}, "[4]": {"system": "mouse IL-13 mRNA in primary LN cells", "experiment": "Mouse IL-13 mRNA in LN cells of immunized SJL/J mice stimulated with Copaxone and GMA lots, normalized to Actβ or GAPDH (Example V)", "format": "cell-based", "conditions": "10 μg/mL; for 1L-13 mRNA Fold Change: normalized to Actβ; for IL-13 mRNA Fold Change: normalized to GAPDH", "description": "A real-time polymerase chain reaction method was used to measure the expression of cytokine mRNA in GA-stimulated LN cells from GA-immunized SJL/J mice. Normalization of expression with two different housekeeping genes, GAPDH and β-actin, was tested.\nEach group consisted of six female SJL/J mice immunized by injection in all four footpads with a total dose of 250 μg of one lot of GA, or mannitol and no GA. Three Copaxone batches and three GMA batches were used to immunize the mice. CFA was included in both GA and mannitol immunizations. Ten days following immunization, LN cell samples isolated from the immunized mice were each stimulated with a concentration of a Copaxone lot and a GMA lot. A positive control of 2.5 μg/mL ConA treated LN cells and a negative control of 10 μg/mL MBP treated cells were included in each group.\nTherefore, the Q-PCR analysis was repeated on the samples, measuring levels of IL-2, IL-4, IL-5, and IL-13, using both GAPDH and β-actin as reference gene."}, "[5]": {"system": "mIL-10 mRNA in primary LN cells", "experiment": "mIL-10 mRNA by real-time PCR in stimulated LN cells of immunized (SJL/J×BALB/C)F1 mice (Example I)", "format": "cell-based, mouse", "conditions": "GA 10, MBP 10, ConA 2.5 μg/mL, reference GAPDH", "description": "Animals were immunized on Day 0.\nEach mouse received a total injection volume of […] (250 μg GA). Animals were immunized on Day 0. […] Lymph nodes from immunized mice were removed and isolated.\nas §1"}, "[6]": {"conditions": "Group 1B (GA + CFA), 4 hours post-stimulation"}, "[7]": {"conditions": "Group 1B (GA + CFA), 6 hours post-stimulation"}, "[8]": {"conditions": "Group 2B (Mannitol + CFA), 4 hours post-stimulation"}, "[9]": {"conditions": "Group 2B (Mannitol + CFA), 6 hours post-stimulation"}}}
{"molecule": "B1", "values": [{"measurement": "mIL-4 mRNA Level", "setting": "[1]; 4 hour post stimulation", "value": 0.8, "unit": "fold change vs control"}, {"measurement": "mIL-4 mRNA Level", "setting": "[1]; 6 hour post stimulation", "value": 0.6, "unit": "fold change vs control"}, {"measurement": "mIL-4 mRNA Level", "setting": "[1]; 24 hour post stimulation", "value": 1.1, "unit": "fold change vs control"}, {"measurement": "mIL-4 mRNA", "setting": "[1]; [6]", "value": 0.5, "unit": "fold change vs control"}, {"measurement": "mIL-4 mRNA", "setting": "[1]; [7]", "value": 0.3, "unit": "fold change vs control"}, {"measurement": "mIL-4 mRNA", "setting": "[1]; [8]", "value": 1.4, "unit": "fold change vs control"}, {"measurement": "mIL-4 mRNA", "setting": "[1]; [9]", "value": 0.8, "unit": "fold change vs control"}, {"measurement": "IL-2 secretion response ratio (treated cell medium to control DCCM1 medium)", "setting": "[2]; BALB/cByJ, immunized GA Lower Limb", "value": 1.13}, {"measurement": "IL-2 secretion response ratio (treated cell medium to control DCCM1 medium)", "setting": "[2]; C57BL10J, immunized GA Intraplantar", "value": 1.18}, {"measurement": "IL-2 secretion response ratio (treated cell medium to control DCCM1 medium)", "setting": "[2]; C57BL10J, immunized GA Lower Limb", "value": 1.30}, {"measurement": "IL-2 secretion response ratio (treated cell medium to control DCCM1 medium)", "setting": "[2]; CD-1, immunized GA Lower Limb", "value": 1.29}, {"measurement": "IFN-γ secretion response ratio (treated cell medium to control DCCM1 medium)", "setting": "[3]; BALB/cByJ, immunized GA Intraplantar, 21 hr", "value": 0.87}, {"measurement": "IFN-γ secretion response ratio (treated cell medium to control DCCM1 medium)", "setting": "[3]; BALB/cByJ, immunized GA Intraplantar, 45 hr", "value": 0.83}, {"measurement": "IFN-γ secretion response ratio (treated cell medium to control DCCM1 medium)", "setting": "[3]; BALB/cByJ, immunized GA Lower Limb, 21 hr", "value": 0.80}, {"measurement": "IFN-γ secretion response ratio (treated cell medium to control DCCM1 medium)", "setting": "[3]; BALB/cByJ, immunized GA Lower Limb, 45 hr", "value": 0.92}, {"measurement": "IFN-γ secretion response ratio (treated cell medium to control DCCM1 medium)", "setting": "[3]; BALB/cByJ, immunized Mannitol Intraplantar, 21 hr", "value": 1.17}, {"measurement": "IFN-γ secretion response ratio (treated cell medium to control DCCM1 medium)", "setting": "[3]; BALB/cByJ, immunized Mannitol Intraplantar, 45 hr", "value": 0.92}, {"measurement": "IFN-γ secretion response ratio (treated cell medium to control DCCM1 medium)", "setting": "[3]; C57BL10J, immunized GA Intraplantar, 21 hr", "value": 1.03}, {"measurement": "IFN-γ secretion response ratio (treated cell medium to control DCCM1 medium)", "setting": "[3]; C57BL10J, immunized GA Intraplantar, 45 hr", "value": 1.07}, {"measurement": "IFN-γ secretion response ratio (treated cell medium to control DCCM1 medium)", "setting": "[3]; C57BL10J, immunized GA Lower Limb, 21 hr", "value": 1.60}, {"measurement": "IFN-γ secretion response ratio (treated cell medium to control DCCM1 medium)", "setting": "[3]; C57BL10J, immunized GA Lower Limb, 45 hr", "value": 1.80}, {"measurement": "IFN-γ secretion response ratio (treated cell medium to control DCCM1 medium)", "setting": "[3]; C57BL10J, immunized Mannitol Intraplantar, 21 hr", "value": 2.02}, {"measurement": "IFN-γ secretion response ratio (treated cell medium to control DCCM1 medium)", "setting": "[3]; C57BL10J, immunized Mannitol Intraplantar, 45 hr", "value": 1.41}, {"measurement": "IFN-γ secretion response ratio (treated cell medium to control DCCM1 medium)", "setting": "[3]; CD-1, immunized GA Intraplantar, 21 hr", "value": 1.06}, {"measurement": "IFN-γ secretion response ratio (treated cell medium to control DCCM1 medium)", "setting": "[3]; CD-1, immunized GA Intraplantar, 45 hr", "value": 0.89}, {"measurement": "IFN-γ secretion response ratio (treated cell medium to control DCCM1 medium)", "setting": "[3]; CD-1, immunized GA Lower Limb, 21 hr", "value": 0.90}, {"measurement": "IFN-γ secretion response ratio (treated cell medium to control DCCM1 medium)", "setting": "[3]; CD-1, immunized GA Lower Limb, 45 hr", "value": 2.11}, {"measurement": "IFN-γ secretion response ratio (treated cell medium to control DCCM1 medium)", "setting": "[3]; CD-1, immunized Mannitol Intraplantar, 21 hr", "value": 1.57}, {"measurement": "IFN-γ secretion response ratio (treated cell medium to control DCCM1 medium)", "setting": "[3]; CD-1, immunized Mannitol Intraplantar, 45 hr", "value": 7.22}, {"measurement": "1L-13 mRNA Fold Change", "setting": "[4]; Group ID 3", "value": 0.7, "unit": "fold"}, {"measurement": "IL-13 mRNA Fold Change", "setting": "[4]; Group ID 3", "value": 0.5, "unit": "fold"}, {"measurement": "1L-13 mRNA Fold Change", "setting": "[4]; Group ID 4", "value": 1.0, "unit": "fold"}, {"measurement": "IL-13 mRNA Fold Change", "setting": "[4]; Group ID 4", "value": 1.2, "unit": "fold"}, {"measurement": "mIL-10 mRNA", "setting": "[5]; [6]", "value": 1.0, "unit": "fold change vs control"}, {"measurement": "mIL-10 mRNA", "setting": "[5]; [7]", "value": 0.6, "unit": "fold change vs control"}, {"measurement": "mIL-10 mRNA", "setting": "[5]; [8]", "value": 1.0, "unit": "fold change vs control"}, {"measurement": "mIL-10 mRNA", "setting": "[5]; [9]", "value": 0.5, "unit": "fold change vs control"}]}
